# Test results reported in patent publication US8143228B2, “Agents capable of downregulating an MSF-A dependent HIF-1α and use thereof in cancer treatment” (Medical Research Fund of Tel Aviv Sourasky Medical Center, priority 2004, dated 2012).
# Assays:
# [1] = system: PC-3 cells; test: Soft agar foci assay; format: cell-based; conditions: PC-3-MSF-A vs PC-3-Neo cells, 4 weeks, normoxia
# Method: FIGS. 14a-g are microscopic photographs (FIGS. 14a-f) and a graph depicting the effect of MSF-A over-expression on colony formation and growth (FIG. 14g). PC-3-Neo and PC-3-MSF-A cells were grown for 4 weeks in soft agar under normoxic conditions. Colonies were observed and counted. FIGS. 14a, c, and e—representative colonies from each plate seeded with PC-3-Neo cells; FIGS. 14b, d, and f—representative colonies from each plate seeded with PC-3-MSF-A cells; FIG. 14g—quantitative analysis of colony number from each cell type. Columns=means; bars=SD; n=3.
# Soft Agar Foci assay—The assay tests the anchorage-independent growth of the cell in soft agar. Suspensions of PC-3-Neo or PC-3-MSF-A cells in 0.22% soft agar were poured on 35 mm-diameter plate (5000 cells/plate) pre-cast with 0.5% soft agar and were cultured for 4 weeks. Colonies (≧20 cells) were counted.
# [2] = system: HIF-1 target genes; test: Semi-quantitative RT-PCR of HIF-1 target genes; format: cell-based
# Method: FIGS. 12a-f are RT-PCR analyses depicting HIF-1α mediated activation of various genes in cells transfected with the expression vector alone (Neo) or the MSF-A expression vector (MSF-A). Total RNA was isolated from PC-3-Neo and PC-3-MSF-A cells grown under normoxic (lanes 1 and 2) and hypoxic (lanes 3 and 4) conditions. Semi-quantitative RT-PCR analysis was performed using VEGF, Glut-1, ET-1, CA-IX, HIF-1α and β-actin primers (SEQ ID NOs:4200-4211 as described under General Materials and Experimental Methods). Lane 1—Neo, lane 2—MSF-A, lane 3—Neo, lane 4—MSF-A, lane 5—water (negative control).
# Isolation and analysis of RNA—Total RNA was extracted from cells by using RNeasy Mini Kit (Qiagen Inc., Valencia, Calif.) according to the manufacturer's protocol. Total RNA from xenograft-derived tumors, which were frozen in liquid N2 immediately after dissection, was prepared using TRI REAGENT (Sigma-Aldrich Co., Saint Louis, Mo.) following the manufacturer's instructions. One μg total RNA was reverse transcribed into cDNA using Reverse-iT 1st Strand Synthesis Kit (ABgene, Epsom, United Kingdom) using anchored oligo dT as first strand primer. […] Semi-quantitative RT-PCR was performed using […] as an internal control to normalize gene expression for the PCR templates. […]
molecule,measurement,setting,value
"MSF-A: myeloid/lymphoid leukemia septin-like fusion protein A (SEQ ID NO:3), over-expressed from the p3xFlag-MSF-A vector (protein, listed as Homo sapiens, 3xFlag tag) MKKSYSGGTRTSSGRLRRLGDSSGPALKRSFEVEEVETPNSTPPRRVQTPLLRATVASSTQKFQDLGVKNSEPSARHVDSLSQRSPKASLRRVELSGPKAAEPVSRRTELSIDISSKQVENAGAIGPSRFGLKRAEVLGHKTPEPAPRRTEITIVKPQESAHRRMEPPASKVPEVPTAPATDAAPKRVEIQMPKPAEAPTAPSPAQTLENSEPAPVSQLQSRLEPKPQPPVAEATPRSQEATEAAPSCVGDMADTPRDAGLKQAPASRNEKAPVDFGYVGIDSILEQMRRKAMKQGFEFNIMVVGQSGLGKSTLINTLFKSKISRKSVQPTSEERIPKTIEIKSITHDIEEKGVRMKLTVIDTPGFGDHINNENCWQPIMKFINDQYEKYLQEEVNINRKKRIPDTRVHCCLYFIPATGHSLRPLDIEFMKRLSKVVNIVPVIAKADTLTLEERVHFKQRITADLLSNGIDVYPQKEFDEDSEDRLVNEKFREMIPFAVVGSDHEYQVNGKRILGRKTKWGTIEVENTTHCEFAYLRDLLIRTHMQNIKDITSSIHFEAYRVKRLNEGSSAMANGVEEKEPEAPEM",colony formation in soft agar,[1],significantly more colonies
same,HIF-1α mRNA level,[2]; PC-3-MSF-A and PC-3-Neo cells,unchanged
same,VEGF mRNA levels,[2]; PC-3-MSF-A vs PC-3-Neo cells,significantly higher
